Measured values taken from patent publication US20110283945A1.

Target: trypsin activity of mated D. melanogaster female hemolymph
Test: cell-based or functional assay

Bowman-Birk Inhibitor (BBI), trypsin/chymotrypsin inhibitor from soybeans (from UniProt P01055 40-110)
reduced cleavage of the trypsin substrate N-Bnz-R-pna by mated female hemolymph: 78%
